According to publication doi:10.1101/2021.03.12.435194, “Antibody evasion by the Brazilian P.1 strain of SARS-CoV-2” (bioRxiv, 2021):

Target: T1, WT RBD (Wuhan) (SARS-CoV-2, Wuhan (RBD identical in …, UniProt P0DTC2))
T1 construct: also called Wuhan RBD; native RBD
Test: crystal structure
Conditions: both partners purified

B1: EY6A Fab (Fab, V domains shown)
VH: EVQLVESGGGVVQPGRSLRLSCAASAFTFSSYDMHWVRQAPGKGLEWVAVISYDGSNKYYADSVKGRFTISRDNSKNTLYLQMNSLRAEDTAVYYCAKDGGKLWVYYFDYWGQGTLVTVSS
VL: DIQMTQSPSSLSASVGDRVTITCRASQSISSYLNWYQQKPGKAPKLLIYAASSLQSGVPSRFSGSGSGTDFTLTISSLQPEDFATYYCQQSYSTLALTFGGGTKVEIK
- binding result: binds
